The values below come from doi:10.1101/2025.10.08.681084.

The target of the experiment is recombinant Nrf2-6×his (human) (UniProt Q16236). The experiment can be described thus: pull-down.
Sequence of UniProt Q16236 (Q16236 whole entry): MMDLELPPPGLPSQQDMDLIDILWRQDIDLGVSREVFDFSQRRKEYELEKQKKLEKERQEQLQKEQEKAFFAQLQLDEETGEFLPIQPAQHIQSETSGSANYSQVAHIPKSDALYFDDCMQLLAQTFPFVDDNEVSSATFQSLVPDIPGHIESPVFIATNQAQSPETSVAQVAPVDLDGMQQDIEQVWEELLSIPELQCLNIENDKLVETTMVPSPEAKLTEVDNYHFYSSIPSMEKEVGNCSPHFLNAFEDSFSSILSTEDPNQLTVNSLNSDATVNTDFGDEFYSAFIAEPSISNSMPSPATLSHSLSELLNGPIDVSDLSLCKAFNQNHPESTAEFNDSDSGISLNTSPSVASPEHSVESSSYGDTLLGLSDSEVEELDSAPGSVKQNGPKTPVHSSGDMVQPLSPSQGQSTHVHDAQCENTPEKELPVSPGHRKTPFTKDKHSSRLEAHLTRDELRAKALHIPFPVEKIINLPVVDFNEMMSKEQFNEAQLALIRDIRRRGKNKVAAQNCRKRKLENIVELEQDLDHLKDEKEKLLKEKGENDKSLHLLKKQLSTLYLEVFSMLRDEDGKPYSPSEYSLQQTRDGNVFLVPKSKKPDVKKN

“recombinant K13 (TrK13-WT) (domain or fragment)”: the percent reduction of binding of heme-bound TrK13-WT against heme-free TrK13-WT was 26%.
